Measurements: article PMC9274004, “Deciphering the Molecular Interaction Between the Adhesion G Protein-Coupled Receptor ADGRV1 and its PDZ-Containing Regulator PDZD7” (Frontiers in Molecular Biosciences, 2022)
“Also recorded” adds a separate entry of the source.

Assays:
[1] = nanoDSF thermostability of unbound PDZD7 constructs; assay type: physicochemical; conditions: MES pH6 (50 mM), micromolar concentrations, without ligand
Method: (§1) NanoDSF experiments were performed on a Prometheus (Nanotemper) spectrometer using Prometheus NT.48 Series nanoDSF Grade High Sensitivity Capillaries. All samples were prepared in MES pH6 (50 mM) at micromolar concentrations. For the complexes, ADGRV1pbm peptide was added at a final concentration of 756 μM, diluting the samples by 5%.

PDZD7 PDZ1ext WT = assay: nanoDSF thermostability of PDZ1ext WT in complex; assay type: binding, murine; conditions: MES pH6 (50 mM), PDZ1ext WT + ADGRV1pbm 756 μM, unbound Tm 61.6°C
Method: as §1

ADGRV1 = conditions: cellular models, PDZ-PBM dependent; ref Hu et al., 2014; cited from earlier work
From the text: Cochlear hair cells are the primary receptors for the detection of sound-induced vibrations. […] The shape of the bundle is critical for the cohesive deflection of the stereocilia necessary for the cell function. Morphogenesis of the hair bundle is regulated during cochlear development, but the underlying signaling pathways remain elusive. The ankle link protein complex, transiently expressed at the base of the stereocilia, is the main candidate for regulating bundle morphogenesis, with pathogenic varia ... || PDZD7 and ADGRV1 are the main candidate proteins for regulating the signaling associated with the Usher2 complex. PDZD7 is primarily a scaffolding protein, with several protein-protein interaction domains (three PDZ domains and one HHD) likely recruiting several partners at the ankle links anchoring sites ([Du et al., 2018]).

ADGRV1 β subunit = assay: Pull-down of ADGRV1 β subunit by full-length PDZD7-GFP from HeLa cell lysates; assay type: binding, murine; conditions: PDZD7-GFP bait, anti-GFP beads, 4°C 1 h, western blot, vs no bait
Method: HeLa cells were maintained in Dulbecco’s modified Eagle’s medium (DMEM) containing 10% fetal calf serum (FCS). PDZD7 constructs correspond to the full-length murine sequence in fusion with a N-terminal strep tag and a C-terminal GFP, wild-type or carrying G103R/G228R variants, cloned in a PMT3 vector. The ADGRV1 construct corresponds to the murine β subunit of the receptor (5884-6298) cloned in a pRK5 vector. Plasmids were transfected in separate HeLa cultures using 25 μg (PDZD7) and 10 μg (ADGRV1) of DNA per 10 cm dish using TurboFect™ Transfection Reagent (ThermoFisher Scientific) at 3 μl per μg of transfected DNA. Mixes were prepared in volumes of 1 ml/plate (in DMEM), vortexed and incubated up to 30 min at room temperature, cell media were renewed before transfection. After drop by drop addition of the transfection mix, cells were maintained at 37°C for 14 h for protein expression. Cells were dissociated using Gibco™ Trypsine-EDTA (0,05%), subsequently inactivated by addition of DMEM containing 10% FCS. Cells were counted, pelleted and resuspended at similar concentrations in PBS Tween 0.01%, Dodécyl-β-D-maltoside (DDM) 0.1% containing anti-proteases (buffer). Benzonase (Sigma) was added before sonication of the cells (40 mA amplitude, 10 pulses of 12 s with 18 s intervals, in ice). An identical volume of ADGRV1 β transfected cell lysate was mixed to either PDZD7 WT, G103R or G228R transfected cell lysates. PDZ proteins have different expression levels, meaning that different amounts of sample are needed to saturate the dynabeads with the PDZ proteins. Pull down experiments have been performed several times allowing us to estimate the yield of expression of each PDZ construct for a given amount of cells. […] Target proteins were detected using mouse α-GFP (LivingColors™ JL-8, Takara) and rabbit α-ADGRV1 (custom, raised against the cytoplasmic domain) antibodies (1/2000 in 5% milk TBST), as well as secondary α-mouse and α-rabbit IgG antibodies coupled to HRP (1/2000 in 5% milk TBST). […]

PDZD7 PDZ2ext WT = assay: nanoDSF thermostability of PDZ2ext WT in complex; assay type: binding, murine; conditions: MES pH6 (50 mM), PDZ2ext WT + ADGRV1pbm 756 μM, unbound Tm 38.5°C
Method: as §1

[2] = Aggregation / sample stability of purified PDZ2 constructs; assay type: physicochemical
From the text: The biochemical behavior of PDZD7 PDZ2 drastically differs from PDZ1, with or without its C-terminal extension. […] In order to further establish the accessible folding states of the PDZ2 extension, we used the same metadynamics approach as for PDZ1ext and probed its conformational energy landscape (Figure 3C).

[3] = SAXS geometrical parameters of unbound PDZ tandem; assay type: physicochemical; conditions: without ligand, Phosphate Buffer 50 mM pH 6.5, NaCl 300 mM, TCEP 0.5 mM
Method: X-ray scattering data were collected at the SWING beamline at Soleil Synchrotron (Saclay, France). 50 μl of sample are injected on a Superdex-75 5/150 GL size exclusion column in-line with the SAXS measuring cell. PDZD7 samples are prepared in the same buffer (Phosphate Buffer 50 mM pH 6.5, NaCl 300 mM, TCEP 0.5 mM, anti-proteases). The experiment is performed at initial concentrations of 119 μM (3.1 mg/ml) for P1P2 WT and 108 μM (2.8 mg/ml) for P1P2 G103R. For complexes, 2 μl of pH-adjusted ADGRV1pbm peptide (VELRRIPIADTHL-COOH; 13,7 mM) are added to the 50 μl from the sample 1 hour before recording. Initial data processing was performed using sxCuBE, FOXTROT and PRIMUS. The radii of gyration were evaluated using Guinier approximation. The Dmax was determined from the distance distribution function P(r) obtained with the program GNOM.

[4] = Analytical UltraCentrifugation of unbound P1P2; assay type: physicochemical; conditions: AUC, 10°C, P1P2 0.4 mg/ml, Phosphate Buffer pH 6.5 (50 mM)
Method: AUC experiments were performed at 10°C using an analytical Beckman Coulter Optima ultracentrifuge equipped with a AN50-Ti rotor. The P1P2 sample was prepared at 0.4 mg/ml in Phosphate Buffer pH 6.5 (50 mM). For the complex, 10 μl of pH-adjusted ADGRV1pbm peptide (13,7 mM) were added to 300 μl of P1P2 sample. Interference profiles were analyzed with SEDFIT.

PDZD7 P1P2 WT = assay: nanoDSF thermostability of P1P2 WT in complex; assay type: binding, murine; conditions: MES pH6 (50 mM), P1P2 WT + ADGRV1pbm 756 μM, unbound Tm 41°C
Method: as §1

B1: PDZ1ext WT: first PDZ of mouse PDZD7 with its C-terminal extension (A81 to E192) (protein, UniProt E9Q9W7 81-192, looked up, fragment)
chain: SDIIHAVRVEKSPSGRLGFSVRGGSEHGLGIFVSKVEEGSSAERAGLCVGDKITEVNGLSLESTTMGSAVRLLTSSSCLHMMVRRMGRVPGIKFSKEKTTWVDVVNRRLVVE
[1]
  Tm (Unbound): 61.6 °C
PDZD7 PDZ1ext WT
  Tm (Bound): 61.8 °C

B2: WT PDZD7: full-length murine PDZD7 in fusion with N-terminal strep tag and C-terminal GFP (pull-down) (protein)
chain: MARGFTVGFDPLGLGELSSGSLSSVSSRGHLGSDSGSTATRYLLRKQQRLLNGPSRGIRASSPMGRVILINSPIEANSDESDIIHAVRVEKSPSGRLGFSVRGGSEHGLGIFVSKVEEGSSAERAGLCVGDKITEVNGLSLESTTMGSAVRLLTSSSCLHMMVRRMGRVPGIKFSKEKTTWVDVVNRRLVVEKCSSTPSDRSSEDGVRRIVHLYTTSDDFCLGFNIRGGKEFGLGIYVSKVDHGGLAEENGIKVGDQVLAANGVRFDDISHSQAVEVLKGQTHIMLTIKETGRYPAYKEMVSEYCWLDRLSNGVLQQLSPASESSSSVSSYASSAPCSSGSLPSDRMDVCLGPEEPTSHGPGWGRADTAMQTEPDLDSRVETWCSVRPTVILRDTAIRSDGPSSTRHLDSALSESPKTALLLALSRPRTPITRSQSHLTLWEEKKQRKKEKSGSSGEKGALQRSKTLMNLFFKGGRQGRPAGDGHREAWTLDSRSPTKVRPRLDLEKAGSVGPVQKFVTWRLRRDRERGRALLSARSGSPSGQAPTVNEQVQAWESRRPLIQDLARRLLTDDEVLAVTRHCSRYVHEGGVEDLVRPLLAILDRPTKLLLLRDIRSVVAPTDLGRFDSMVMPVELEAFEALKSRAVGPSALRPTRQDTPPKRHLITPVPDSRGGFYLLPVNSSEDEDGEIREKLGVLKVSLGASAPHHKGIPPLQDVPVDAFSLRRGACAPPPQPPPVAPRPPRPNWLLTEPLSREDTQQNQSQTPAQSCSRSRSRSRSRSHSRGQGKSPGRRRSPSPAPIATAATANGRYHRPRKARPLLPRLLDGQVAKVGARQGPLENGRIAEEAVGNVSTGALRTITLSKMKQSLGISISGGIESKVQPMVKIEKIFPGGAAFLCGDLQAGFELVAVDGESLEQVTHQRAVDTIRRAYRNKAREPMELVVRVPGPGLLPLASDLRVVKDQSLAPDCPSALGPVDDARILTQLPPPEARQLQQSLSSALKVPQSIPKLSPILKDPHDPS
modifications: left off: strep tag, N-terminal, kept | GFP, C-terminal, kept
ADGRV1
  effect on ADGRV1 GPCR activity: downregulates the GPCR activity and restores cAMP levels; also recorded: downregulates ADGRV1 GPCR activity
ADGRV1 β subunit
  binding of ADGRV1 β subunit (pull-down): a clear band is observed

B3: PDZ2ext WT: second PDZ of mouse PDZD7 with its C-terminal extension (G206 to G313) (protein)
chain: GVRRIVHLYTTSDDFCLGFNIRGGKEFGLGIYVSKVDHGGLAEENGIKVGDQVLAANGVRFDDISHSQAVEVLKGQTHIMLTIKETGRYPAYKEMVSEYCWLDRLSNG
modifications: left off: GST, N-terminal, cleaved
PDZD7 PDZ2ext WT
  Tm (Bound): 47.2 °C
[1]
  Tm (Unbound): 38.5 °C
[2]; 15N-labelled PDZ2 constructs, NMR
  sample stability: stable for a few hours only
[2]; at temperatures higher than 15 °C, despite extensive screening of buffer conditions
  aggregation: Rapid aggregation

B4: P1P2 WT: PDZD7 PDZ tandem (P1P2 construct; A81 to G313) (protein, UniProt E9Q9W7 81-313, looked up, fragment)
chain: SDIIHAVRVEKSPSGRLGFSVRGGSEHGLGIFVSKVEEGSSAERAGLCVGDKITEVNGLSLESTTMGSAVRLLTSSSCLHMMVRRMGRVPGIKFSKEKTTWVDVVNRRLVVEKCSSTPSDRSSEDGVRRIVHLYTTSDDFCLGFNIRGGKEFGLGIYVSKVDHGGLAEENGIKVGDQVLAANGVRFDDISHSQAVEVLKGQTHIMLTIKETGRYPAYKEMVSEYCWLDRLSNG
[3]; Guinier approximation
  radius of gyration (Rg): 27.8 Å
[3]; P(r) with GNOM
  interatomic maximum distance (Dmax): 109.5 Å
[1]
  Tm (Unbound): 41 °C
[4]
  sedimentation coefficient: 1.6 Svedberg (S)
PDZD7 P1P2 WT
  Tm (Bound): 57.2 °C
